In patent US20250019439A1 (Adimab, published 2025):

Tests used:
ADI-67447 = molecular target: T1, ADI-67447; experiment: SPR Carterra avidity, yeast anti-ID
T1 construct: anti-CD3 antibody made in CHO cells, captured by anti-human Fc
Procedure: (§1) Kinetic analysis was conducted at 25° C. in an HBSTE running buffer system (Carterra Cat #3630) using a Carterra LSA (Carterra USA, Salt Lake City, UT). The sample compartment was maintained at 20° C. for the duration of each experiment.
(§2) For antibody capture experiments, a goat anti-human Fc antibody (Jackson ImmunoResearch) was covalently coupled to an HC30M sensor chip surface via standard amine coupling (1:1 EDC:NHS) and then blocked with ethanolamine (1.0 M, pH 8.5). Covalent coupling steps were performed in 25 mM MES buffer (Carterra, Cat #3625) plus 0.05% Tween20. The anti-CD3 antibodies (100 nM in running buffer) were flowed over discrete regions of interest on the chip surface for 5 minutes. […] Dissociation of the anti-idiotype antibodies was monitored for 300s. Several blank buffer samples were injected over the entire chip surface at the start of each non-regenerative kinetic cycle. The preceding blank buffer injection was used for blank surface subtraction. At the end of each non-regenerative kinetic cycle, all surfaces were regenerated via two 30s injections of 10 mM glycine, pH 1.7.
(§3) For data processing and fitting, sensorgrams were double reference subtracted with a baseline drift correction of 4 RU. Sensorgrams were y-aligned and baseline corrected, filtered and cropped to include only the association and dissociation steps. Data was fitted to a 1:1 binding model using Carterra Kinetics Data Analysis software version 1.7.1.3055.

ADI-26913 IgG = molecular target: T2, ADI-26913 IgG; experiment: SPR Carterra avidity, yeast anti-ID
T2 construct: anti-CD3 IgG
Procedure: as §1, §2, §3

ADI-74965 = molecular target: T3, ADI-74965; experiment: SPR Carterra avidity, yeast anti-ID
T3 construct: pH-dependent anti-CD3 antibody made in CHO cells
Procedure: as §1, §2, §3

CTL-62223 = molecular target: T4, CTL-62223; experiment: SPR Carterra avidity, yeast anti-ID
T4 construct: also called mosunetuzumab
Procedure: as §1, §2, §3

ADI-76358 = molecular target: T5, ADI-76358; experiment: SPR Carterra avidity, yeast anti-ID
T5 construct: anti-CD3 antibody made in CHO cells, captured by anti-human Fc
Procedure: as §1, §2, §3

ADI-26912 = molecular target: T6, ADI-26912; experiment: SPR Carterra avidity, yeast anti-ID
T6 construct: anti-CD3 antibody made in CHO cells, captured by anti-human Fc
Procedure: as §1, §2, §3

ADI-26915 = molecular target: T7, ADI-26915; experiment: SPR Carterra avidity, yeast anti-ID
T7 construct: anti-CD3 antibody made in CHO cells, captured by anti-human Fc
Procedure: as §1, §2, §3

ADI-76360 = molecular target: T8, ADI-76360; experiment: SPR Carterra avidity, yeast anti-ID
T8 construct: anti-CD3 antibody made in CHO cells, captured by anti-human Fc
Procedure: as §1, §2, §3

ADI-76357 = molecular target: T9, ADI-76357; experiment: SPR Carterra avidity, yeast anti-ID
T9 construct: anti-CD3 antibody made in CHO cells, captured by anti-human Fc
Procedure: as §1, §2, §3

ADI-48650 = molecular target: T10, ADI-48650; experiment: SPR Carterra avidity, yeast anti-ID
T10 construct: pH-dependent anti-CD3 antibody made in CHO cells
Procedure: as §1, §2, §3

ADI-48592 = molecular target: T11, ADI-48592; experiment: SPR Carterra avidity, yeast anti-ID
T11 construct: pH-dependent anti-CD3 antibody made in CHO cells
Procedure: as §1, §2, §3

ADI-74968 = molecular target: T12, ADI-74968; experiment: SPR Carterra avidity, yeast anti-ID
T12 construct: pH-dependent anti-CD3 antibody made in CHO cells
Procedure: as §1, §2, §3

ADI-50024 = molecular target: T13, ADI-50024; experiment: SPR Carterra avidity, yeast anti-ID
T13 construct: anti-CD3 antibody made in CHO cells, captured by anti-human Fc
Procedure: as §1, §2, §3

ADI-74966 = molecular target: T14, ADI-74966; experiment: SPR Carterra avidity, yeast anti-ID
T14 construct: pH-dependent anti-CD3 antibody made in CHO cells
Procedure: as §1, §2, §3

ADI-26906 IgG = molecular target: T15, ADI-26906 IgG; experiment: SPR Carterra avidity, yeast anti-ID
T15 construct: anti-CD3 IgG
Procedure: as §1, §2, §3

ADI-70330 = molecular target: T16, ADI-70330; experiment: SPR Carterra avidity, yeast anti-ID
T16 construct: anti-CD3 antibody made in CHO cells, captured by anti-human Fc
Procedure: as §1, §2, §3

ADI-26909 = molecular target: T17, ADI-26909; experiment: SPR Carterra avidity, yeast anti-ID
T17 construct: anti-CD3 antibody made in CHO cells, captured by anti-human Fc
Procedure: as §1, §2, §3

ADI-70327 = molecular target: T18, ADI-70327; experiment: SPR Carterra avidity, yeast anti-ID
T18 construct: anti-CD3 antibody made in CHO cells, captured by anti-human Fc
Procedure: as §1, §2, §3

ADI-26921 IgG = molecular target: T19, ADI-26921 IgG; experiment: SPR Carterra avidity, yeast anti-ID
T19 construct: anti-CD3 IgG
Procedure: as §1, §2, §3

ADI-67445 = molecular target: T20, ADI-67445; experiment: SPR Carterra avidity, yeast anti-ID
T20 construct: anti-CD3 antibody made in CHO cells, captured by anti-human Fc
Procedure: as §1, §2, §3

ADI-48587 = molecular target: T21, ADI-48587; experiment: SPR Carterra avidity, yeast anti-ID
T21 construct: pH-dependent anti-CD3 antibody made in CHO cells
Procedure: as §1, §2, §3

ADI-76361 = molecular target: T22, ADI-76361; experiment: SPR Carterra avidity, yeast anti-ID
T22 construct: anti-CD3 antibody made in CHO cells, captured by anti-human Fc
Procedure: as §1, §2, §3

ADI-26916 IgG = molecular target: T23, ADI-26916 IgG; experiment: SPR Carterra avidity, yeast anti-ID
T23 construct: anti-CD3 IgG
Procedure: as §1, §2, §3

ADI-76362 = molecular target: T24, ADI-76362; experiment: SPR Carterra avidity, yeast anti-ID
T24 construct: anti-CD3 antibody made in CHO cells, captured by anti-human Fc
Procedure: as §1, §2, §3

ADI-67450 = molecular target: T25, ADI-67450; experiment: SPR Carterra avidity, yeast anti-ID
T25 construct: anti-CD3 antibody made in CHO cells, captured by anti-human Fc
Procedure: as §1, §2, §3

ADI-70326 = molecular target: T26, ADI-70326; experiment: SPR Carterra avidity, yeast anti-ID
T26 construct: anti-CD3 antibody made in CHO cells, captured by anti-human Fc
Procedure: as §1, §2, §3

ADI-22523 Fab = molecular target: T27, ADI-22523 Fab; experiment: BLI; tip anti-ID IgG, solution ADI-22523 Fab
T27 construct: anti-CD3 Fab by papain digestion of the IgG
Procedure: (§4) ForteBio affinity measurements were performed generally as previously described (Estep et al., MAbs. 2013 5(2):270-8). Briefly, ForteBio affinity measurements were performed by loading antibody IgG or Fabs on-line onto AHC sensors. Sensors were equilibrated off-line in assay buffer for 30 minutes and then monitored on-line for 60 seconds for baseline establishment. For avid binding measurement, sensors with loaded antibodies were exposed to IgG or Fab solutions for 3 minutes, afterwards they were transferred to assay buffer for 3 minutes for off-rate measurement. Kinetics data were fit using a 1:1 binding model in the data analysis software provided by ForteBio to obtain equilibrium dissociation constant (KD=koff/kₒₙ) values. In each column, tip-immobilized antibodies are listed first and solution antibodies second.

ADI-22523 IgG = molecular target: T28, ADI-22523 IgG; experiment: BLI; tip anti-ID IgG, solution ADI-22523 IgG
T28 construct: anti-CD3 IgG
Procedure: as §4

CTL-62227 = molecular target: T29, CTL-62227; experiment: SPR Carterra, yeast anti-ID
T29 construct: also called odronextamab
Procedure: as §1, §2, §3

ADI-48576 = molecular target: T30, ADI-48576; experiment: SPR Carterra, yeast anti-ID
T30 construct: pH-dependent anti-CD3 antibody made in CHO cells
Procedure: as §1, §2, §3

CTL-62240 = molecular target: T31, CTL-62240; experiment: SPR Carterra, yeast anti-ID
T31 construct: also called ONO-4685
Procedure: as §1, §2, §3

CTL-62228 = molecular target: T32, CTL-62228; experiment: SPR Carterra, yeast anti-ID
T32 construct: also called glofitamab
Procedure: as §1, §2, §3

ADI-26943 = molecular target: T33, ADI-26943; experiment: SPR Carterra avidity, yeast anti-ID, *koff limit
T33 construct: anti-CD3 antibody made in CHO cells, captured by anti-human Fc
Procedure: as §1, §2, §3

ADI-76359 = molecular target: T34, ADI-76359; experiment: SPR Carterra avidity, yeast anti-ID, *koff limit
T34 construct: anti-CD3 antibody made in CHO cells, captured by anti-human Fc
Procedure: as §1, §2, §3

ADI-26920 IgG = molecular target: T35, ADI-26920 IgG; experiment: SPR Carterra avidity, yeast anti-ID, *koff limit
T35 construct: anti-CD3 IgG
Procedure: as §1, §2, §3

ADI-26919 = molecular target: T36, ADI-26919; experiment: SPR Carterra avidity, yeast anti-ID, *koff limit
T36 construct: anti-CD3 antibody made in CHO cells, captured by anti-human Fc
Procedure: as §1, §2, §3

ADI-26924 = molecular target: T37, ADI-26924; experiment: SPR Carterra avidity, yeast anti-ID, *koff limit
T37 construct: anti-CD3 antibody made in CHO cells, captured by anti-human Fc
Procedure: as §1, §2, §3

ADI-74967 = molecular target: T38, ADI-74967; experiment: SPR Carterra avidity, yeast anti-ID, *koff limit
T38 construct: pH-dependent anti-CD3 antibody made in CHO cells
Procedure: as §1, §2, §3

T18 sequence (VH, as listed by the source limits assumed, chain 1 of 2): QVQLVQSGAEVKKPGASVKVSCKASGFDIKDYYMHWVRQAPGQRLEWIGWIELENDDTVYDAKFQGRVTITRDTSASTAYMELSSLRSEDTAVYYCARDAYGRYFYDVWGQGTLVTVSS
T18 sequence (VL, as listed by the source limits assumed, chain 2 of 2): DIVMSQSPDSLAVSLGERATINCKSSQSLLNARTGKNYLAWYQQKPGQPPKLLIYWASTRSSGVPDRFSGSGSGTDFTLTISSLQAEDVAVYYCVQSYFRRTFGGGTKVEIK
T10 sequence (VH, as listed by the source, chain 1 of 2): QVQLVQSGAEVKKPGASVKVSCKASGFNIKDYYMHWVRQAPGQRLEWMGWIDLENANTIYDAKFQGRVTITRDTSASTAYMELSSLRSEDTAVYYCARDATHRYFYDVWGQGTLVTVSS
T10 sequence (VL, as listed by the source, chain 2 of 2): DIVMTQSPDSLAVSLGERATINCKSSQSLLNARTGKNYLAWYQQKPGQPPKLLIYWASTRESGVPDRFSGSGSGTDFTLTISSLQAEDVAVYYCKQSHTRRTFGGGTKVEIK
T37 sequence (VH, as listed by the source, chain 1 of 2): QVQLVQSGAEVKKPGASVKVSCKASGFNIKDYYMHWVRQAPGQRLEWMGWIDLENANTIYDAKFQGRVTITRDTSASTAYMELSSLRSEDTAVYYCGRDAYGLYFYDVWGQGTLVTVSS
T37 sequence (VL, as listed by the source, chain 2 of 2): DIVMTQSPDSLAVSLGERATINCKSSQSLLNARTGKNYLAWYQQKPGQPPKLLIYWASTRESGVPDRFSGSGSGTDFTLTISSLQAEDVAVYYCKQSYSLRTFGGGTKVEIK
T4 sequence (VH, as listed by the source, chain 1 of 2): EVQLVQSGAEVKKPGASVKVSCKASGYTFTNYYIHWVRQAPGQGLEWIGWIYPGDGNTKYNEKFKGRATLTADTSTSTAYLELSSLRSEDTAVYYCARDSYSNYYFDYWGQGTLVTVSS
T4 sequence (VL, as listed by the source, chain 2 of 2): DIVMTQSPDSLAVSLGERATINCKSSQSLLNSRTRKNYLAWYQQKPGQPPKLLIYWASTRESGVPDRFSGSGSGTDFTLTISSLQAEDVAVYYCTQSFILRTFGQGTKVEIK
T35 sequence (VH, as listed by the source limits assumed, chain 1 of 2): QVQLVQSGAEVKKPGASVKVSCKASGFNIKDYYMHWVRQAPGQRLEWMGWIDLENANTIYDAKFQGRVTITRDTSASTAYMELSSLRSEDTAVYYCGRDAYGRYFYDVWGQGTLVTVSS
T30 sequence (VH, as listed by the source, chain 1 of 2): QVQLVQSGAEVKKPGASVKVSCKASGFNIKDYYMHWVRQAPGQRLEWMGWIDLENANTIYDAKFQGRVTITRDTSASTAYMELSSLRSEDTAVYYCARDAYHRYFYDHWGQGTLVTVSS
T30 sequence (VL, as listed by the source, chain 2 of 2): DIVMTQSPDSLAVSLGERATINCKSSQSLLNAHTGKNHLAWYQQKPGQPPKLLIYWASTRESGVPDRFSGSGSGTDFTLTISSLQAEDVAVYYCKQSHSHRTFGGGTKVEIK
T25 sequence (VH, as listed by the source limits assumed, chain 1 of 2): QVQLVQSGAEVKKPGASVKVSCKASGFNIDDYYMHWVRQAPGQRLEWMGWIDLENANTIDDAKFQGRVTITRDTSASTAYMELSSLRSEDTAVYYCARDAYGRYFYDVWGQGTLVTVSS
T25 sequence (VL, as listed by the source limits assumed, chain 2 of 2): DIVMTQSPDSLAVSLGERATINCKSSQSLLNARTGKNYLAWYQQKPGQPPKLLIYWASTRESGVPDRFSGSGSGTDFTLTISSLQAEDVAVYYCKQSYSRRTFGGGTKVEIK
T7 sequence (VH, as listed by the source, chain 1 of 2): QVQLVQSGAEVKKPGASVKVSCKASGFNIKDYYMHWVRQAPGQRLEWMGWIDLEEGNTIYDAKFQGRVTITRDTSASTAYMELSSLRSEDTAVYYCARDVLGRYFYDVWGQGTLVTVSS
T36 sequence (VH, as listed by the source limits assumed, chain 1 of 2): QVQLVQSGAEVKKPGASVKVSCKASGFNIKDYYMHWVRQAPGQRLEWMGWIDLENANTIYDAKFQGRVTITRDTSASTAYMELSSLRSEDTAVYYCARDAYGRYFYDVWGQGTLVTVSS
T23 sequence (VH, as listed by the source, chain 1 of 2): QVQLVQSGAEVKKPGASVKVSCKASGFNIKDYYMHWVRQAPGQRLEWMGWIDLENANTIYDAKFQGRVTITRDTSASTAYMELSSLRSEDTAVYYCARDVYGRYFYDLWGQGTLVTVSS
T26 sequence (VH, as listed by the source limits assumed, chain 1 of 2): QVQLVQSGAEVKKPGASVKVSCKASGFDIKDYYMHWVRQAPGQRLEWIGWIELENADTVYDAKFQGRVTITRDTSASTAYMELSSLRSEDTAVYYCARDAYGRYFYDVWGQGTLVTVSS
T5 sequence (VH, as listed by the source, chain 1 of 2): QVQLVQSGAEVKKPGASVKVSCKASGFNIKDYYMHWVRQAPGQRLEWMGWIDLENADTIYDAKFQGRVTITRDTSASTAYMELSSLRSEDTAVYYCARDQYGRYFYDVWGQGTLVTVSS
T34 sequence (VH, as listed by the source, chain 1 of 2): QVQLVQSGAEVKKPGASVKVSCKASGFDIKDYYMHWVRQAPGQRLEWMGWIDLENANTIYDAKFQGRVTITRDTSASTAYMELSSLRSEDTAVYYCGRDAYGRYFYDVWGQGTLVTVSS
T31 sequence (VH, as listed by the source, chain 1 of 2): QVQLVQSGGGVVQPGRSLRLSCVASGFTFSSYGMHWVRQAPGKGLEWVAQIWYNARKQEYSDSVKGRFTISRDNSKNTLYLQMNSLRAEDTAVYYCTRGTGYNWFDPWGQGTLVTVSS
T31 sequence (VL, as listed by the source, chain 2 of 2): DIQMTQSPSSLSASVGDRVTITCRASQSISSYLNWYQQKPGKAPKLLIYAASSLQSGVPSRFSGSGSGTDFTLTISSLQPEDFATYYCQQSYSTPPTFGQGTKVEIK
T22 sequence (VH, as listed by the source, chain 1 of 2): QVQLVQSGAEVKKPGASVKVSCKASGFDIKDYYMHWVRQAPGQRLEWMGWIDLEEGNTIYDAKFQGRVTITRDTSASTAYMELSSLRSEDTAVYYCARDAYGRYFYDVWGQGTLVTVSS
T12 sequence (VH, as listed by the source, chain 1 of 2): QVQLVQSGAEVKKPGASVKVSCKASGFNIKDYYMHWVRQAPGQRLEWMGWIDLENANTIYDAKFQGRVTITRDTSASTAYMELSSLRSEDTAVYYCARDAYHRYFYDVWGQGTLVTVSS
T12 sequence (VL, as listed by the source, chain 2 of 2): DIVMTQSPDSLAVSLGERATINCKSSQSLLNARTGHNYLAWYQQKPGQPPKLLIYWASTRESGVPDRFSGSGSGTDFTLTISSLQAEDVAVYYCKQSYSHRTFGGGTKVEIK
T3 sequence (VL, as listed by the source, chain 2 of 2): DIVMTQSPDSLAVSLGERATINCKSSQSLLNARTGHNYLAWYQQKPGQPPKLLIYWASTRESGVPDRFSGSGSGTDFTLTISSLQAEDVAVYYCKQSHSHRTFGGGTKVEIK

B1: ADI-30242 (antibody, V domains shown)
VH: QVQLVQSGAEVKKPGSSVKVSCKASGGTFSSYAISWVRQAPGQGLEWMGGIIPIFGTANYAQKFQGRVTITADESTSTAYMELSSLRSEDTAVYYCARGAPNYYGSGGYDDGWFDPWGQGTLVTVSS
VL: EIVLTQSPGTLSLSPGERATLSCRASQSVSSSYLAWYQQKPGQAPRLLIYGASSRATGIPDRFSGSGSGTDFTLTISRLEPEDFAVYYCQQFGRDPTFGGGTKVEIK
notes: anti-ID IgG
With B1 as the binder, how does the Kd (ADI-67447) read?
The Kd was 8.4 nM.

And the Kd (ADI-26913 IgG)?
The Kd was 24 nM.

What about the Kd (ADI-74965) of the same binder?
The Kd was 45 nM.

And the Kd (CTL-62223)?
Its Kd is 31 nM.

What about the Kd (ADI-76358) of the same binder?
The Kd was 42 nM.

What about the Kd (ADI-26912) of the same binder?
The Kd was 33 nM.

And the Kd (ADI-26915)?
Its Kd is 56 nM.

What about the Kd (ADI-76360) of the same binder?
Its Kd is 11 nM.

And the Kd (ADI-76357)?
Its Kd is 22 nM.

What about the Kd (ADI-48650) of the same binder?
Its Kd is 44 nM.

Does B1 bind (ADI-48592)?
Result: binds

What about the Kd (ADI-74968) of the same binder?
The Kd was 36 nM.

And the Kd (ADI-50024)?
Its Kd is 11 nM.

And the Kd (ADI-74966)?
Its Kd is 25 nM.

And the Kd (ADI-26906 IgG)?
The Kd was 5.9 nM.

And the Kd (ADI-70330)?
Its Kd is 40 nM.

And the Kd (ADI-26909)?
Its Kd is 17 nM.

What about the Kd (ADI-70327) of the same binder?
Its Kd is 45 nM.

What about the Kd (ADI-26921 IgG) of the same binder?
Its Kd is 21 nM.

What about the Kd (ADI-67445) of the same binder?
The Kd was 11 nM.

And the Kd (ADI-48587)?
The Kd was 43 nM.

What about the Kd (ADI-76361) of the same binder?
The Kd was 15 nM.

What about the Kd (ADI-26916 IgG) of the same binder?
Its Kd is 35 nM.

And the Kd (ADI-76362)?
Its Kd is 27 nM.

And the Kd (ADI-67450)?
Its Kd is 56 nM.

And the Kd (ADI-70326)?
The Kd was 45 nM.

What about the Kd (ADI-22523 Fab) of the same binder?
Its Kd is 37.4 nM.

And the Kd (ADI-22523 IgG)?
Its Kd is 0.57 nM.

Does B1 bind (CTL-62227)?
Result: no binding (tested: up to 200 nM)

Does B1 bind (ADI-48576)?
Result: no binding (tested: up to 200 nM)

Does B1 bind (CTL-62240)?
Result: no binding (tested: up to 200 nM)

Does B1 bind (CTL-62228)?
Result: no binding (tested: up to 200 nM)

And the Kd (ADI-26943)?
The Kd was 6.2 nM.

And the Kd (ADI-76359)?
Its Kd is 3.7 nM.

And the Kd (ADI-26920 IgG)?
Its Kd is 4.2 nM.

What about the Kd (ADI-26919) of the same binder?
Its Kd is 3.5 nM.

And the Kd (ADI-26924)?
The Kd was 5.3 nM.

What about the Kd (ADI-74967) of the same binder?
Its Kd is 5.6 nM.
